{"source": "paper PMC3214759", "about": "(Biochemistry, 2011)", "proteins": {"B1": {"name": "Rhizobium etli pyruvate carboxylase T882A mutant (enzyme)", "chain": "PISKILVANRSEIAIRVFRAANELGIKTVAIWAEEDKLALHRFKADESYQVGRGPHLARDLGPIESYLSIDEVIRVAKLSGADAIHPGYGLLSESPEFVDACNKAGIIFIGPKADTMRQLGNKVAARNLAISVGVPVVPATEPLPDDMAEVAKMAAAIGYPVMLKASWGGGGRGMRVIRSEADLAKEVTEAKREAMAAFGKDEVYLEKLVERARHVESQILGDTHGNVVHLFERDCSVQRRNQKVVERAPAPYLSEAQRQELAAYSLKIAGATNYIGAGTVEYLMDADTGKFYFIEVNPRIQVEHTVTEVVTGIDIVKAQIHILDGAAIGTPQSGVPNQEDIRLNGHALQCRVTTEDPEHNFIPDYGRITAYRSASGFGIRLDGGTSYSGAIITRYYDPLLVKVTAWAPNPLEAISRMDRALREFRIRGVATNLTFLEAIIGHPKFRDNSYTTRFIDTTPELFQQVKRQDRATKLLTYLADVTVNGHPEAKDRPKPLENAARPVVPYANGNGVKDGTKQLLDTLGPKKFGEWMRNEKRVLLTDTTMRDGHQSLLATRMRTYDIARIAGTYSHALPNLLSLECWGGATFDVSMRFLTEDPWERLALIREGAPNLLLQMLLRGANGVGYTNYPDNVVKYFVRQAAKGGIDLFRVFDCLNWVENMRVSMDAIAEENKLCEAAICYTGDILNSARPKYDLKYYTNLAVELEKAGAHIIAVKDMAGLLKPAAAKVLFKALREATGLPIHFHTHDTSGIAAATVLAAVEAGVDAVDAAMDALSGNTSQPCLGSIVEALSGSERDPGLDPAWIRRISFYWEAVRNQYAAFESDLKGPASEVYLHEMPGGQFTNLKEQARSLGLETRWHQVAQAYADANQMFGDIVKVAPSSKVVGDMALMMVSQDLTVADVVSPDREVSFPESVVSMLKGDLGQPPSGWPEALQKKALKGEKPYTVRPGSLLKEADLDAERKVIEKKLEREVSDFEFASYLMYPKVFTDFALASDTYGPVSVLPTPAYFYGLADGEELFADIEKGKTLVIVNQAVSATDSQGMVTVFFELNGQPRRIKVPDRAHGATGAAVRRKAEPGNAAHVGAPMPGVISRVFVSSGQAVNAGDVLVSIEAMKMETAIHAEKDGTIAEVLVKAGDQIDAKDLLAVYGG", "modifications": "biotin tethered to Lys1119"}, "B2": {"name": "wild-type Rhizobium etli pyruvate carboxylase (enzyme)", "chain": "B1 chain with A881T"}}, "key": {"[1]": {"biological_target": "the molecule itself", "experiment": "crystal structure"}, "[2]": {"biological_target": "the molecule itself", "experiment": "SEC"}}, "note": "Changes are numbered by the printed parent chain. Names may count otherwise.", "data": [{"protein": "B1", "values": [{"measurement": "stoichiometry N", "setting": "[1]", "value": 4}]}, {"protein": "B2", "values": [{"measurement": "stoichiometry N", "setting": "[2]", "value": 4}]}]}
